Data from patent US20250002577A1 (ONCORESPONSE, published 2025).

Assays:
[1] = target: T1, recombinant human LILRB1-His (human, UniProt Q8NHL6 24-458); assay: MSD ELISA, coated antigen, transfection supernatant
T1 construct: Bought protein; also called LILRB1 protein
Description: (§1) To confirm binding to human LILRB1 and human LILRB2, transfection supernatants (obtained in Example 2) were evaluated for binding by ELISA. The conditioned media from these transient transfections were assayed for human IgG concentration by AlphaLISA® immunoassay (PerkinElmer, No. AL310C) (Table 4). A plate-based MSD ELISA was performed in which human LILRB1-His or LILRB2-His was immobilized, and binding of transfection supernatants of humanized mAb variants was detected via an anti-human IgG Sulfo-tag-labeled secondary antibody. The IgG1 version of the parental rabbit/human chimera (designated B21A1) transfection served as the benchmark EC₅₀ positive control.
(§2) Recombinant human and cynomolgus LILRB1 proteins (R&D Systems, No. 8989-T2-050; ACROBiosystems, No. CDJ-C52H3) and recombinant human and cynomolgus LILRB2 proteins (ACROBiosystems, No. LI2-H5220; No. L12-C52H3) were diluted in PBS to 4 μg/mL and added to a multi-array 384-well high-binding plates (MSD, No. L21XA4) at 10 μL/well and incubated at 4° C. overnight. The plates were washed several times with Wash Buffer (0.05% Tween® 20 in PBS), using a microplate washer and then blocked with 70 μL/well of 5% BSA in PBS for 1 hour (h) at room temperature (RT) with shaking at 700 rpm. After blocking, 20 μL/well of anti-LILRB2/LILRB1 antibodies or isotype control were added to the plates, and the plates were sealed and incubated for 2 h at RT with shaking at 700 rpm. After primary antibody binding, plates were washed five times with 70 μL/well of Wash Buffer (0.05% Tween® 20 in PBS) using a microplate washer. Secondary detection antibody (SULFO-TAG™-labeled goat anti-human IgG antibody (MSD, No. R32AJ-1)) was diluted to 4 μg/mL in assay diluent (1% BSA in PBS) and 10 μL/well was added to plates and incubated at RT protected from light for 1 h, with shaking at 700 rpm. Following incubation, plates were washed five times with Wash Buffer, using a microplate washer. After removal of the final wash, 35 μL/well of MSD Gold Read Buffer B (MSD, No. R60AM-4) was added to all wells using a Multidrop combo washer/dispenser, and plates were read using MESO Sector 600MM instrument (MSD) within 5 minutes (min) after addition of Read Buffer. Signals as counts per minute (cpm) were recorded.

[2] = target: T2, recombinant human LILRB2-His (human, UniProt Q8N423 22-461, limits assumed); assay: as above
T2 construct: Bought protein; also called LILRB2 protein
Description: as §1, §2

T2 sequence (Q8N423 22-461 limits assumed): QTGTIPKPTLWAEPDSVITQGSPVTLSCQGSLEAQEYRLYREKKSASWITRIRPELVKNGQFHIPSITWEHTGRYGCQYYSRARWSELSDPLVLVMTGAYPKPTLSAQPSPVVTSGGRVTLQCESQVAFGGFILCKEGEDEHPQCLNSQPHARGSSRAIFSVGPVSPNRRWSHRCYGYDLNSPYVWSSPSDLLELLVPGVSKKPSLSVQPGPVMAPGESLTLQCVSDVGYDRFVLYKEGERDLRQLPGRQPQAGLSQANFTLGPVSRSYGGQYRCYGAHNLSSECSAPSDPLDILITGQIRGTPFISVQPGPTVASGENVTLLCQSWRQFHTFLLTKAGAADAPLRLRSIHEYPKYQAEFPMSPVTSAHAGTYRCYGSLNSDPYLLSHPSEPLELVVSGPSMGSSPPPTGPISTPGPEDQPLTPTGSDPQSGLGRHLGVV
T1 sequence (Q8NHL6 24-458 limits assumed): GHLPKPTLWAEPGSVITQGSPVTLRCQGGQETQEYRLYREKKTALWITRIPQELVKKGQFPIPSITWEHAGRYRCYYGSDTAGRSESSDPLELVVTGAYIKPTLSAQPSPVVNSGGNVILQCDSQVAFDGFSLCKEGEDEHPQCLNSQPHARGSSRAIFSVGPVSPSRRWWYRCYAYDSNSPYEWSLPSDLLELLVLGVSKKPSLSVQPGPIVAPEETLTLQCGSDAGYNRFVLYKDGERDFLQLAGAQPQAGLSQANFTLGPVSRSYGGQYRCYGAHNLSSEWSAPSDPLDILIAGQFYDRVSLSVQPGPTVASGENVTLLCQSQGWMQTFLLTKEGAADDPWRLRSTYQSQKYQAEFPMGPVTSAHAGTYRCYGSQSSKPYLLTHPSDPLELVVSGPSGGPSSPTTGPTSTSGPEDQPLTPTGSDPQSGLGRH

Row | EC50 [1] [ng/mL] | EC50 [2] [ng/mL] | Binder
1 | 2.24 | 1.45 | B21H4-11 (antibody, human IgG4 S228P, kappa, humanized IgG4/kappa, VH1+VL1; transfection supernatant) heavy: not shown light: DIQMTQSPSTLSASVGDRVTITCQASGNIYSFLAWYQQKPGKAPKLLIYTASNLETGVPSRFSGSGSGTEYTLTISSLQPDDFATYYCLGGLYSSDVSYAFGPGTKVEIKRTVAAPSVFIFPPSDEQLKSGTASVVCLLNNFYPREAKVQWKVDNALQSGNSQESVTEQDSKDSTYSLSSTLTLSKADYEKHKVYACEVTHQGLSSPVTKSFNRGEC
2 | 2.46 | 0.95 | B21H4-32 (antibody, human IgG4 S228P, kappa, humanized IgG4/kappa, VH3+VL2; transfection supernatant) heavy: not shown light: DIQMTQSPSSLSASVGDRVTITCQASGNIYSFLAWYQQKPGKVPKLLIYTASNLETGVPSRFSGSGSGTDYTLTISSLQSEDAATYYCLGGLYSSDVSYAFGGGTKVVIKRTVAAPSVFIFPPSDEQLKSGTASVVCLLNNFYPREAKVQWKVDNALQSGNSQESVTEQDSKDSTYSLSSTLTLSKADYEKHKVYACEVTHQGLSSPVTKSFNRGEC
3 | 2.41 | 0.74 | B21H4-12 (antibody, human IgG4 S228P, kappa, humanized IgG4/kappa, VH1+VL2; transfection supernatant) heavy: not shown light: DIQMTQSPSSLSASVGDRVTITCQASGNIYSFLAWYQQKPGKVPKLLIYTASNLETGVPSRFSGSGSGTDYTLTISSLQSEDAATYYCLGGLYSSDVSYAFGGGTKVVIKRTVAAPSVFIFPPSDEQLKSGTASVVCLLNNFYPREAKVQWKVDNALQSGNSQESVTEQDSKDSTYSLSSTLTLSKADYEKHKVYACEVTHQGLSSPVTKSFNRGEC
4 | 3.12 | 1.08 | B21H4-42 (antibody, human IgG4 S228P, kappa, humanized IgG4/kappa, VH4+VL2; transfection supernatant) heavy: not shown light: DIQMTQSPSSLSASVGDRVTITCQASGNIYSFLAWYQQKPGKVPKLLIYTASNLETGVPSRFSGSGSGTDYTLTISSLQSEDAATYYCLGGLYSSDVSYAFGGGTKVVIKRTVAAPSVFIFPPSDEQLKSGTASVVCLLNNFYPREAKVQWKVDNALQSGNSQESVTEQDSKDSTYSLSSTLTLSKADYEKHKVYACEVTHQGLSSPVTKSFNRGEC
5 | 2.85 | 1.08 | B21H4-23 (antibody, human IgG4 S228P, kappa, humanized IgG4/kappa, VH2+VL3; transfection supernatant) heavy: not shown light: DIVMTQSPSSVSASVGDRVTITCQASGNIYSFLAWYQQKPGKAPKLLIYTASNLETGVPSRFSGSGSGTDFTLTISSLQPEDFATYYCLGGLYSSDVSYAFGGGTKVVIKRTVAAPSVFIFPPSDEQLKSGTASVVCLLNNFYPREAKVQWKVDNALQSGNSQESVTEQDSKDSTYSLSSTLTLSKADYEKHKVYACEVTHQGLSSPVTKSFNRGEC
6 | 1.95 | 0.84 | B21H4-24 (antibody, human IgG4 S228P, kappa, humanized IgG4/kappa, VH2+VL4; transfection supernatant) heavy: not shown light: DVVMTQSPSTVSASVGDRVTLTCQASGNIYSFLAWYQQKPGQPPKLLIYTASNLETGVPDRFSGSGSGTDYTLTISSLQADDFATYYCLGGLYSSDVSYAFGQGTKVEIKRTVAAPSVFIFPPSDEQLKSGTASVVCLLNNFYPREAKVQWKVDNALQSGNSQESVTEQDSKDSTYSLSSTLTLSKADYEKHKVYACEVTHQGLSSPVTKSFNRGEC
7 | 1.85 | 1.06 | B21H4-22 (antibody, human IgG4 S228P, kappa, humanized IgG4/kappa, VH2+VL2; transfection supernatant) heavy: not shown light: DIQMTQSPSSLSASVGDRVTITCQASGNIYSFLAWYQQKPGKVPKLLIYTASNLETGVPSRFSGSGSGTDYTLTISSLQSEDAATYYCLGGLYSSDVSYAFGGGTKVVIKRTVAAPSVFIFPPSDEQLKSGTASVVCLLNNFYPREAKVQWKVDNALQSGNSQESVTEQDSKDSTYSLSSTLTLSKADYEKHKVYACEVTHQGLSSPVTKSFNRGEC
8 | 2.32 | 1.93 | B21H4-21 (antibody, human IgG4 S228P, kappa, V domains shown, humanized IgG4/kappa, VH2+VL1; transfection supernatant) VH: EVQLLESGGGLVQPGGSLRLSCAASGFSLNTYAMTWVRQAPGKGLEWVSIIVASGGTYYASWAKGRFTISRDNSKNTLYLQMNSLTVEDTAVYFCARGGMGSDWGESLDAFDPWGQGTLVTVSS VL: DIQMTQSPSTLSASVGDRVTITCQASGNIYSFLAWYQQKPGKAPKLLIYTASNLETGVPSRFSGSGSGTEYTLTISSLQPDDFATYYCLGGLYSSDVSYAFGPGTKVEIKR
9 | 2.66 | 0.72 | B21H4-33 (antibody, human IgG4 S228P, kappa, humanized IgG4/kappa, VH3+VL3; transfection supernatant) heavy: not shown light: DIVMTQSPSSVSASVGDRVTITCQASGNIYSFLAWYQQKPGKAPKLLIYTASNLETGVPSRFSGSGSGTDFTLTISSLQPEDFATYYCLGGLYSSDVSYAFGGGTKVVIKRTVAAPSVFIFPPSDEQLKSGTASVVCLLNNFYPREAKVQWKVDNALQSGNSQESVTEQDSKDSTYSLSSTLTLSKADYEKHKVYACEVTHQGLSSPVTKSFNRGEC
10 | 3.04 | 0.63 | B21H4-43 (antibody, human IgG4 S228P, kappa, humanized IgG4/kappa, VH4+VL3; transfection supernatant) heavy: not shown light: DIVMTQSPSSVSASVGDRVTITCQASGNIYSFLAWYQQKPGKAPKLLIYTASNLETGVPSRFSGSGSGTDFTLTISSLQPEDFATYYCLGGLYSSDVSYAFGGGTKVVIKRTVAAPSVFIFPPSDEQLKSGTASVVCLLNNFYPREAKVQWKVDNALQSGNSQESVTEQDSKDSTYSLSSTLTLSKADYEKHKVYACEVTHQGLSSPVTKSFNRGEC
11 | 5.71 | 1.38 | B21H4-41 (antibody, human IgG4 S228P, kappa, V domains shown, humanized IgG4/kappa, VH4+VL1; transfection supernatant) VH: EVQLVESGGGLVQPGGSLRLSCAASGFSLNTYAMTWVRQAPGKGLEWISIIVASGGTYYASWAKGRFTISRDNAKSSVYLQLTSLTTEDTAVYYCARGGMGSDWGESLDAFDPWGQGTMVTVSS VL: DIQMTQSPSTLSASVGDRVTITCQASGNIYSFLAWYQQKPGKAPKLLIYTASNLETGVPSRFSGSGSGTEYTLTISSLQPDDFATYYCLGGLYSSDVSYAFGPGTKVEIKR
12 | 3.23 | 1.63 | B21H4-44 (antibody, human IgG4 S228P, kappa, V domains shown, humanized IgG4/kappa, VH4+VL4; transfection supernatant) VH: EVQLVESGGGLVQPGGSLRLSCAASGFSLNTYAMTWVRQAPGKGLEWISIIVASGGTYYASWAKGRFTISRDNAKSSVYLQLTSLTTEDTAVYYCARGGMGSDWGESLDAFDPWGQGTMVTVSS VL: DVVMTQSPSTVSASVGDRVTLTCQASGNIYSFLAWYQQKPGQPPKLLIYTASNLETGVPDRFSGSGSGTDYTLTISSLQADDFATYYCLGGLYSSDVSYAFGQGTKVEIKR
13 | 3.91 | 1.73 | B21H4-35 (antibody, human IgG4 S228P, kappa, V domains shown, humanized IgG4/kappa, VH3+VL5; transfection supernatant) VH: EVQLVESGGDLAQPGGSLRLSCAVSGFSLNTYAMTWVRQAPGKGLEWVSIIVASGGTYYASWAKGRFTISRDNSKNTVYLQMTSLRAEDTALYFCARGGMGSDWGESLDAFDPWGQGTLVTVSS VL: DIQMTQTPSTVEASVGGTVTITCQASGNIYSFLAWYQQKPGQPPKLLIYTASNLETGVPSRFSGSGSGTEYTLTISGLQSDDAATYYCLGGLYSSDVSYAFGGGTEVVVKR
14 | 3.58 | 2.02 | B21H4-31 (antibody, human IgG4 S228P, kappa, V domains shown, humanized IgG4/kappa, VH3+VL1; transfection supernatant) VH: EVQLVESGGDLAQPGGSLRLSCAVSGFSLNTYAMTWVRQAPGKGLEWVSIIVASGGTYYASWAKGRFTISRDNSKNTVYLQMTSLRAEDTALYFCARGGMGSDWGESLDAFDPWGQGTLVTVSS VL: DIQMTQSPSTLSASVGDRVTITCQASGNIYSFLAWYQQKPGKAPKLLIYTASNLETGVPSRFSGSGSGTEYTLTISSLQPDDFATYYCLGGLYSSDVSYAFGPGTKVEIKR
15 | 3.1 | 1.25 | B21H4-15 (antibody, human IgG4 S228P, kappa, humanized IgG4/kappa, VH1+VL5; transfection supernatant) heavy: not shown light: DIQMTQTPSTVEASVGGTVTITCQASGNIYSFLAWYQQKPGQPPKLLIYTASNLETGVPSRFSGSGSGTEYTLTISGLQSDDAATYYCLGGLYSSDVSYAFGGGTEVVVKRTVAAPSVFIFPPSDEQLKSGTASVVCLLNNFYPREAKVQWKVDNALQSGNSQESVTEQDSKDSTYSLSSTLTLSKADYEKHKVYACEVTHQGLSSPVTKSFNRGEC
16 | 3.95 | 1.42 | B21H4-25 (antibody, human IgG4 S228P, kappa, humanized IgG4/kappa, VH2+VL5; transfection supernatant) heavy: not shown light: DIQMTQTPSTVEASVGGTVTITCQASGNIYSFLAWYQQKPGQPPKLLIYTASNLETGVPSRFSGSGSGTEYTLTISGLQSDDAATYYCLGGLYSSDVSYAFGGGTEVVVKRTVAAPSVFIFPPSDEQLKSGTASVVCLLNNFYPREAKVQWKVDNALQSGNSQESVTEQDSKDSTYSLSSTLTLSKADYEKHKVYACEVTHQGLSSPVTKSFNRGEC
17 | 2.92 | 1.57 | B21H4-55 (antibody, human IgG4 S228P, kappa, humanized IgG4/kappa, VH5+VL5; transfection supernatant) heavy: not shown light: DIQMTQTPSTVEASVGGTVTITCQASGNIYSFLAWYQQKPGQPPKLLIYTASNLETGVPSRFSGSGSGTEYTLTISGLQSDDAATYYCLGGLYSSDVSYAFGGGTEVVVKRTVAAPSVFIFPPSDEQLKSGTASVVCLLNNFYPREAKVQWKVDNALQSGNSQESVTEQDSKDSTYSLSSTLTLSKADYEKHKVYACEVTHQGLSSPVTKSFNRGEC
